Test [1] has as its target Fas. Kind of test: ELISA: 100 ng Fas adsorbed, FasL 50 ng, anti-Flag M2 detection. In general terms: ELISA stands for enzyme-linked immunosorbent assay.
Test [2] addresses T1, mFLINT (mature human FLINT, non-Flagged, made according to Examples 8 and 9) (human) (UniProt O95407).
T1 sequence (chain, glycosylated (p-0200)): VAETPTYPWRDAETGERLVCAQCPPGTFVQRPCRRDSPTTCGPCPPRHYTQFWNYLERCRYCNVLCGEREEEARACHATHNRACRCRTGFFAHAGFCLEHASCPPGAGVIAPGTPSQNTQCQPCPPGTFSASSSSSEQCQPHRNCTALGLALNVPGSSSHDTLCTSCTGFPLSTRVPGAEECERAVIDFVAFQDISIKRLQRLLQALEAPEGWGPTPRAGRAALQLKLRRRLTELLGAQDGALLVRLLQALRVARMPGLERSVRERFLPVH
In words: ELISA: 100 ng FLINT adsorbed, FasL 0.1 ng, anti-Flag M2 detection.

For test [3], the target named is Fas. Kind of test: ELISA: 100 ng Fas adsorbed, FasL 5.0 ng, anti-Flag M2 detection.
The target of test [4] is mrecFas. Kind of test: ELISA: 100 ng mrecFas adsorbed, FasL 1 ng, anti-Flag M2 detection.
Test [5] deals with T1, mFLINT (mature human FLINT, non-Flagged, made according to Examples 8 and 9) (human). Kind of test: ELISA: 100 ng FLINT adsorbed, FasL 1.0 ng, anti-Flag M2 detection.
For test [6] the target is unchanged. Kind of test: ELISA: 100 ng FLINT adsorbed, FasL 5.0 ng, anti-Flag M2 detection.
Test [7] has the same target. Kind of test: ELISA: 100 ng FLINT adsorbed, FasL 10 ng, anti-Flag M2 detection.
Test [8] addresses Fas. Kind of test: ELISA: 100 ng Fas adsorbed, FasL 100 ng, anti-Flag M2 detection.
Test [9] has as its target Fas. Kind of test: ELISA: 100 ng Fas adsorbed, FasL 10 ng, anti-Flag M2 detection.
For test [10], the target named is mrecFas. In words: ELISA: 100 ng mrecFas adsorbed, FasL 100 ng, anti-Flag M2 detection.
Test [11] concerns the target mrecFas. Kind of test: ELISA: 100 ng mrecFas adsorbed, FasL 500 ng, anti-Flag M2 detection.
Test [12] deals with mrecFas. In words: ELISA: 100 ng mrecFas adsorbed, FasL 5 ng, anti-Flag M2 detection.
In test [13] the target is Fas. In words: ELISA: 100 ng Fas adsorbed, FasL 0.5 ng, anti-Flag M2 detection.
In test [14] the target is T1, mFLINT (mature human FLINT, non-Flagged, made according to Examples 8 and 9) (human). Kind of test: ELISA: 100 ng FLINT adsorbed, FasL 0.5 ng, anti-Flag M2 detection.
In test [15] the target is Fas. In words: ELISA: 100 ng Fas adsorbed, FasL 1.0 ng, anti-Flag M2 detection.
Test [16] has as its target T1, mFLINT (mature human FLINT, non-Flagged, made according to Examples 8 and 9) (human). In words: ELISA: 100 ng FLINT adsorbed, FasL 50 ng, anti-Flag M2 detection.
For test [17], the target named is mrecFas. In words: ELISA: 100 ng mrecFas adsorbed, FasL 50 ng, anti-Flag M2 detection.
The target of test [18] is mrecFas. In words: ELISA: 100 ng mrecFas adsorbed, FasL 10 ng, anti-Flag M2 detection.
Test [19] has as its target Fas. In words: ELISA: 100 ng Fas adsorbed, FasL 0.1 ng, anti-Flag M2 detection.
Test [20] has as its target T1, mFLINT (mature human FLINT, non-Flagged, made according to Examples 8 and 9) (human). Kind of test: ELISA: 100 ng FLINT adsorbed, FasL 100 ng, anti-Flag M2 detection.

Fas, sequence (P25445 whole entry): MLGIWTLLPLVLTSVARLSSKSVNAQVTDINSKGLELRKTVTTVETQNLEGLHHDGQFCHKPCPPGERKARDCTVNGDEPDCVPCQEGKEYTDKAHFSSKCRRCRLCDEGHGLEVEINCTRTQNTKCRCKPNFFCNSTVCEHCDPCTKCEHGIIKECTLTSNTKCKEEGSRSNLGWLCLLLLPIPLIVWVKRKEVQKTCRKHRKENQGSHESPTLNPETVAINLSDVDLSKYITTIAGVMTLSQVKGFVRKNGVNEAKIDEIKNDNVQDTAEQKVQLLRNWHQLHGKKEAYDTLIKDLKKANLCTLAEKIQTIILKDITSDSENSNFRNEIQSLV
hFasLigand (Flag-tagged), sequence (P48023 103-281 limits assumed): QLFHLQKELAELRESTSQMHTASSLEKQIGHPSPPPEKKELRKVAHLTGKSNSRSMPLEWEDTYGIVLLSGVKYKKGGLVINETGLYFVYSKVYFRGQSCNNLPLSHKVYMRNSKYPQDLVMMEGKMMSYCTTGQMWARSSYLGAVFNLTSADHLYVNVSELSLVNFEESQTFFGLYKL

Turning to “hFasLigand (Flag-tagged) (from UniProt P48023)”, the Fas OD, 405 nM with Fas [1] is 0.045 OD, 405 nM; with Fas [3] it was 0.01 OD, 405 nM; with Fas [8], 0.18 OD, 405 nM; with Fas [9], 0.03 OD, 405 nM; with Fas [13], 0 OD, 405 nM; with Fas [15] it was 0 OD, 405 nM. For the same substance, the Fas OD, 405 nM with Fas [19] is 0 OD, 405 nM. The FLINT OD is 0 OD, 405 nM in [2]; 0.02 OD, 405 nM in test [5]; 0.04 OD, 405 nM in test [6]; 0.12 OD, 405 nM in test [7]; 0 OD, 405 nM in test [14]; 0.28 OD, 405 nM in test [16]. Also, the FLINT OD in test [20] is 0.78 OD, 405 nM. The OD, 405 nM in the test with mrecFas [4] is 0.1 OD, 405 nM; with mrecFas [10] it was 1.2 OD, 405 nM; with mrecFas [11] it was 1.6 OD, 405 nM; with mrecFas [12], 0.2 OD, 405 nM; in the test with mrecFas [17], 0.7 OD, 405 nM; with mrecFas [18], 0.3 OD, 405 nM.

(Values after patent US20040167074A1, “Therapeutic applications of mFLINT polypeptides” (priority 1998, published 2004).)
